Assay results: US20260242735A1 (UNIVERSIT T BASEL, published 2026)

How the values were obtained:
human wild-type CD33 [1] = molecular target: T1, human wild-type CD33 (human, UniProt P20138 18-364); assay: flow cytometry, IgG at 0.50 ug/ml on HEK293-T cells expressing CD33 against vector alone
T1 construct: also called SIGLEC3; P67
Protocol: Binding of the antibodies to the transfected cells and the optimal assay conditions were evaluated in 384-well format. Detection of cellular expression was measured via high-throughput flow cytometry. Serial dilutions of each antibody were tested for immunoreactivity against cells expressing CD33 or vector alone. The optimal screening concentration for each antibody was determined based on the raw signal values and signal-to-background calculations. Each point represents the mean of four replicates.

human CD33 M348A = molecular target: T2, human CD33 M348A (human, UniProt P20138 18-364); assay: alanine scan; flow cytometry, HEK293-T cells expressing the mutant; normalised to WT CD33;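 note: antibodies (IgG or Fab) at doses pre-set by titration on wild-type CD33, duplicate readings with background fluorescence subtracted, mutants made by site-directed alanine substitution (alanine changed to serine)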
T2 construct: Alanine-scan mutant clone of CD33 transiently transfected into HEK293-T cells
T2 sequence (P20138 18-364 M348A limits assumed): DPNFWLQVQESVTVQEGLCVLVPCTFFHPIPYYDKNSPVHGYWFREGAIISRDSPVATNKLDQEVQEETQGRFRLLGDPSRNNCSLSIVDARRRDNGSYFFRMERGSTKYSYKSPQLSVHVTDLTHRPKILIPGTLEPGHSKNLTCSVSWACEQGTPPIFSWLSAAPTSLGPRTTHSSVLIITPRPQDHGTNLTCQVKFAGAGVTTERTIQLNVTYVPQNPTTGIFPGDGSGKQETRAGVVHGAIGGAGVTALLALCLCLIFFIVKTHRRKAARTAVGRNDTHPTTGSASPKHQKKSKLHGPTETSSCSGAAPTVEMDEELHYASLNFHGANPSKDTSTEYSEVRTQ
Protocol: (§1) An alanine scan on human CD33 was performed to the determine the residues on CD33 that are involved in binding to the antibodies investigated. […] Briefly, a mutation library of CD33 was created by high-throughput, site-directed mutagenesis. Each residue was individually mutated to alanine, with alanine codons mutated to serine. The mutant library was arrayed in 384-well microplates and transiently transfected into HEK293-T. Following transfection, cells were incubated with the indicated antibodies (IgG or Fab) at concentrations pre-determined using an independent immunofluorescence titration curve on wild type CD33. […] Binding of each antibody to each mutant clone was determined in duplicates. For each point, background fluorescence was subtracted from the raw data, which were then normalized to antibody reactivity with wild type CD33.
(§2) Critical residues for antibody binding (outlined in dark grey) were residues whose mutations led to a binding of the test Abs of less than 20%. Additional secondary residues (outlined in light grey) were identified that led to a binding of the test Abs of between 20 and 40% as compared to the wild type CD33.

human CD33 G347A = molecular target: T3, human CD33 G347A (human, UniProt P20138 18-364); assay: as above
T3 construct: Alanine-scan mutant clone of CD33 transiently transfected into HEK293-T cells
T3 sequence (P20138 18-364 G347A limits assumed): as the sequence (P20138 18-364 M348A limits assumed) above, with G330A, A331M counted along it
Protocol: as §1, §2

human CD33 V361A = molecular target: T4, human CD33 V361A (human, UniProt P20138 18-364); assay: as above
T4 construct: Alanine-scan mutant clone of CD33 transiently transfected into HEK293-T cells
T4 sequence (P20138 18-364 V361A limits assumed): as the sequence (P20138 18-364 M348A limits assumed) above, with A331M, V344A counted along it
Protocol: as §1, §2

human CD33 P350A = molecular target: T5, human CD33 P350A (human, UniProt P20138 18-364); assay: as above
T5 construct: Alanine-scan mutant clone of CD33 transiently transfected into HEK293-T cells
T5 sequence (P20138 18-364 P350A limits assumed): as the sequence (P20138 18-364 M348A limits assumed) above, with A331M, P333A counted along it
Protocol: as §1, §2

human CD33 T356A = molecular target: T6, human CD33 T356A (human, UniProt P20138 18-364); assay: as above
T6 construct: Alanine-scan mutant clone of CD33 transiently transfected into HEK293-T cells
T6 sequence (P20138 18-364 T356A limits assumed): as the sequence (P20138 18-364 M348A limits assumed) above, with A331M, T339A counted along it
Protocol: as §1, §2

human CD33 Q364A = molecular target: T7, human CD33 Q364A (human, UniProt P20138 18-363); assay: as above
T7 construct: Alanine-scan mutant clone of CD33 transiently transfected into HEK293-T cells
T7 sequence (P20138 18-364 Q364A limits assumed): as the sequence (P20138 18-364 M348A limits assumed) above, with A331M, Q347A counted along it
Protocol: as §1, §2

human CD33 T354A = molecular target: T8, human CD33 T354A (human, UniProt P20138 18-364); assay: as above
T8 construct: Alanine-scan mutant clone of CD33 transiently transfected into HEK293-T cells
T8 sequence (P20138 18-364 T354A limits assumed): as the sequence (P20138 18-364 M348A limits assumed) above, with A331M, T337A counted along it
Protocol: as §1, §2

human CD33 S359A = molecular target: T9, human CD33 S359A (human, UniProt P20138 18-364); assay: as above
T9 construct: Alanine-scan mutant clone of CD33 transiently transfected into HEK293-T cells
T9 sequence (P20138 18-364 S359A limits assumed): as the sequence (P20138 18-364 M348A limits assumed) above, with A331M, S342A counted along it
Protocol: as §1, §2

human CD33 D353A = molecular target: T10, human CD33 D353A (human, UniProt P20138 18-364); assay: as above
T10 construct: Alanine-scan mutant clone of CD33 transiently transfected into HEK293-T cells
T10 sequence (P20138 18-364 D353A limits assumed): as the sequence (P20138 18-364 M348A limits assumed) above, with A331M, D336A counted along it
Protocol: as §1, §2

human CD33 E357A = molecular target: T11, human CD33 E357A (human, UniProt P20138 18-364); assay: as above
T11 construct: Alanine-scan mutant clone of CD33 transiently transfected into HEK293-T cells
T11 sequence (P20138 18-364 E357A limits assumed): as the sequence (P20138 18-364 M348A limits assumed) above, with A331M, E340A counted along it
Protocol: as §1, §2

human CD33 H346A = molecular target: T12, human CD33 H346A (human, UniProt P20138 18-364); assay: as above
T12 construct: Alanine-scan mutant clone of CD33 transiently transfected into HEK293-T cells
T12 sequence (P20138 18-364 H346A limits assumed): as the sequence (P20138 18-364 M348A limits assumed) above, with H329A, A331M counted along it
Protocol: as §1, §2

human CD33 R362A = molecular target: T13, human CD33 R362A (human, UniProt P20138 18-364); assay: as above
T13 construct: Alanine-scan mutant clone of CD33 transiently transfected into HEK293-T cells
T13 sequence (P20138 18-364 R362A limits assumed): as the sequence (P20138 18-364 M348A limits assumed) above, with A331M, R345A counted along it
Protocol: as §1, §2

human CD33 E360A = molecular target: T14, human CD33 E360A (human, UniProt P20138 18-364); assay: as above
T14 construct: Alanine-scan mutant clone of CD33 transiently transfected into HEK293-T cells
T14 sequence (P20138 18-364 E360A limits assumed): as the sequence (P20138 18-364 M348A limits assumed) above, with A331M, E343A counted along it
Protocol: as §1, §2

human CD33 Y358A = molecular target: T15, human CD33 Y358A (human, UniProt P20138 18-364); assay: as above
T15 construct: Alanine-scan mutant clone of CD33 transiently transfected into HEK293-T cells
T15 sequence (P20138 18-364 Y358A limits assumed): as the sequence (P20138 18-364 M348A limits assumed) above, with A331M, Y341A counted along it
Protocol: as §1, §2

human CD33 N349A = molecular target: T16, human CD33 N349A (human, UniProt P20138 18-364); assay: as above
T16 construct: Alanine-scan mutant clone of CD33 transiently transfected into HEK293-T cells
T16 sequence (P20138 18-364 N349A limits assumed): as the sequence (P20138 18-364 M348A limits assumed) above, with A331M, N332A counted along it
Protocol: as §1, §2

human CD33 T363A = molecular target: T17, human CD33 T363A (human, UniProt P20138 18-364); assay: as above
T17 construct: Alanine-scan mutant clone of CD33 transiently transfected into HEK293-T cells
T17 sequence (P20138 18-364 T363A limits assumed): as the sequence (P20138 18-364 M348A limits assumed) above, with A331M, T346A counted along it
Protocol: as §1, §2

human CD33 S355A = molecular target: T18, human CD33 S355A (human, UniProt P20138 18-364); assay: as above
T18 construct: Alanine-scan mutant clone of CD33 transiently transfected into HEK293-T cells
T18 sequence (P20138 18-364 S355A limits assumed): as the sequence (P20138 18-364 M348A limits assumed) above, with A331M, S338A counted along it
Protocol: as §1, §2

human CD33 S351A = molecular target: T19, human CD33 S351A (human, UniProt P20138 18-364); assay: as above
T19 construct: Alanine-scan mutant clone of CD33 transiently transfected into HEK293-T cells
T19 sequence (P20138 18-364 S351A limits assumed): as the sequence (P20138 18-364 M348A limits assumed) above, with A331M, S334A counted along it
Protocol: as §1, §2

human CD33 K352A = molecular target: T20, human CD33 K352A (human, UniProt P20138 18-364); assay: as above
T20 construct: Alanine-scan mutant clone of CD33 transiently transfected into HEK293-T cells
T20 sequence (P20138 18-364 K352A limits assumed): as the sequence (P20138 18-364 M348A limits assumed) above, with A331M, K335A counted along it
Protocol: as §1, §2

human wild-type CD33 [2] = molecular target: T1, human wild-type CD33; assay: flow cytometry, Fab at 0.50 ug/ml on HEK293-T cells expressing CD33 against vector alone
Protocol: Serial dilutions of each Fab were tested for immunoreactivity against cells expressing wild-type CD33 or vector alone. The optimal screening concentration for the Fabs was determined based on the raw signal values and signal-to-background calculations. Each point represents the mean of four replicates.

T1 sequence (P20138 18-364 limits assumed): as the sequence (P20138 18-364 M348A limits assumed) above, with A331M counted along it

| Mean % WT Binding (human CD33 M348A) | Mean % WT Binding (human CD33 G347A) | Mean % WT Binding (human CD33 V361A) | Mean % WT Binding (human CD33 P350A) | Mean % WT Binding (human CD33 T356A) | Mean % WT Binding (human CD33 Q364A) | Mean % WT Binding (human CD33 T354A) | Mean % WT Binding (human CD33 S359A) | Mean % WT Binding (human CD33 D353A) | Mean % WT Binding (human CD33 E357A) | Mean % WT Binding (human CD33 H346A) | Mean % WT Binding (human CD33 R362A) | Mean % WT Binding (human CD33 E360A) | Mean % WT Binding (human CD33 Y358A) | Mean % WT Binding (human CD33 N349A) | Mean % WT Binding (human CD33 T363A) | Mean % WT Binding (human CD33 S355A) | Mean % WT Binding (human CD33 S351A) | Mean % WT Binding (human CD33 K352A) | Signal:Background (human wild-type CD33 [2]) | Binder | also measured |
| --- | --- | --- | --- | --- | --- | --- | --- | --- | --- | --- | --- | --- | --- | --- | --- | --- | --- | --- | --- | --- | --- |
| 101 % WT binding | 95.2 % WT binding | 76 % WT binding | 108 % WT binding | 99.5 % WT binding | 94.4 % WT binding | 99.3 % WT binding | 82.5 % WT binding | 92.1 % WT binding | 91.2 % WT binding | 104 % WT binding | 107 % WT binding | 93.5 % WT binding | 92 % WT binding | 91 % WT binding | 105 % WT binding | 98.9 % WT binding | 112 % WT binding | 94.1 % WT binding | – | Refmab #6 (antibody, V domains shown, Full-length format is human IgG1 Fc silent (PG-LALA); The alanine scan used IgG or Fab) VH: QVQLQQPGAEVVKPGASVKMSCKASGYTFTSYYIHWIKQTPGQGLEWVGVIYPGNDDISYNQKFQGKATLTADKSSTTAYMQLSSLTSEDSAVYYCAREVRLRYFDVWGQGTTVTVSS VL: EIVLTQSPGSLAVSPGERVTMSCKSSQSVFFSSSQKNYLAWYQQIPGQSPRLLIYWASTRESGVPDRFTGSGSGTDFTLTISSVQPEDLAIYYCHQYLSSRTFGQGTKLEIK | – |
| – | – | – | – | – | – | – | – | – | – | – | – | – | – | – | – | – | – | – | 17 signal:background ratio | Refmab #5 Fab fragment (Fab, V domains shown) VH: QVQLVQSGAEVKKPGASVKVSCKASGYTFTNYDINWVRQAPGQGLEWIGWIYPGDGSTKYNEKFKAKATLTADTSTSTAYMELRSLRSDDTAVYYCASGYEDAMDYWGQGTTVTVSS VL: DIQMTQSPSSLSASVGDRVTINCKASQDINSYLSWFQQKPGKAPKTLIYRANRLVDGVPSRFSGSGSGQDYTLTISSLQPEDFATYYCLQYDEFPLTFGGGTKVEIK | – |

Second part, the binder before the results:

| Binder | Mean % WT Binding (human CD33 M348A) | Mean % WT Binding (human CD33 G347A) | Mean % WT Binding (human CD33 V361A) | Mean % WT Binding (human CD33 P350A) | Mean % WT Binding (human CD33 T356A) | Mean % WT Binding (human CD33 Q364A) | Mean % WT Binding (human CD33 T354A) | Mean % WT Binding (human CD33 S359A) | Mean % WT Binding (human CD33 D353A) | Mean % WT Binding (human CD33 E357A) | Mean % WT Binding (human CD33 H346A) | Mean % WT Binding (human CD33 R362A) | Mean % WT Binding (human CD33 E360A) | Mean % WT Binding (human CD33 Y358A) | Mean % WT Binding (human CD33 N349A) | Mean % WT Binding (human CD33 T363A) | Mean % WT Binding (human CD33 S355A) | Mean % WT Binding (human CD33 S351A) | Mean % WT Binding (human CD33 K352A) | Signal:Background (human wild-type CD33 [2]) | also measured |
| --- | --- | --- | --- | --- | --- | --- | --- | --- | --- | --- | --- | --- | --- | --- | --- | --- | --- | --- | --- | --- | --- |
| Refmab #2 (antibody, human IgG1, V domains shown, Full-length MAb format, human IgG1 Fc silent (PG-LALA)) VH: QVQLVQSGAEVKKPGSSVKVSCKASGGTFSDYAISWVRQAPGQGLEWMGRIIPILGVADYAQKFQGRVTITADKSTRTAYMELSSLRSEDTAVYYCARNWADAFDIWGQGTMVTVSS VL: DIQLTQSPSSLSASVGDRVTITCRASQGISSVLAWYQQKPGKAPKLLIYDASSLESGVPSRFSGSGSGTDFTLTISSLQPEDFATYYCQQFDSSITFGQGTKLEIK | – | – | – | – | – | – | – | – | – | – | – | – | – | – | – | – | – | – | – | – | Signal:Background (human wild-type CD33 [1]): 59 signal:background ratio |
| Refmab #5 (antibody, V domains shown, Full-length format is human IgG1 Fc silent (PG-LALA); The alanine scan used IgG or Fab) VH: QVQLVQSGAEVKKPGASVKVSCKASGYTFTNYDINWVRQAPGQGLEWIGWIYPGDGSTKYNEKFKAKATLTADTSTSTAYMELRSLRSDDTAVYYCASGYEDAMDYWGQGTTVTVSS VL: DIQMTQSPSSLSASVGDRVTINCKASQDINSYLSWFQQKPGKAPKTLIYRANRLVDGVPSRFSGSGSGQDYTLTISSLQPEDFATYYCLQYDEFPLTFGGGTKVEIK | 92.3 % WT binding | 104 % WT binding | 84.5 % WT binding | 93.8 % WT binding | 89.3 % WT binding | 107 % WT binding | 84.7 % WT binding | 87.2 % WT binding | 74.6 % WT binding | 75.3 % WT binding | 114 % WT binding | 101 % WT binding | 107 % WT binding | 97.9 % WT binding | 84.9 % WT binding | 90.1 % WT binding | 126 % WT binding | 88.9 % WT binding | 112 % WT binding | – | – |
| Refmab #4 Fab fragment (Fab, V domains shown) VH: QVQLVQSGAEVKKPGESVKVSCKASGYTFTNYGMNWVKQAPGQGLEWMGWINTYTGEPTYADKFQGRVTMTTDTSTSTAYMEIRNLGGDDTAVYYCARWSWSDGYYVYFDYWGQGTSVTVSS VL: DIVMTQSPDSLTVSLGERTTINCKSSQSVLDSSTNKNSLAWYQQKPGQPPKLLLSWASTRESGIPDRFSGSGSGTDFTLTIDSPQPEDSATYYCQQSAHFPITFGQGTRLEIK | – | – | – | – | – | – | – | – | – | – | – | – | – | – | – | – | – | – | – | 33 signal:background ratio | – |
